Results on 41 sequences are retold here after the nanobody polyreactivity screen of Harvey et al. (2022).

The nature of this series: yeast display, Sf9 membrane polyspecificity reagent, FACS + sequencing; frameworks hold sequencing errors. In outline:
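After 36–48 hours of galactose induction, yeast (Saccharomyces cerevisiae BJ5465) displaying a synthetic nanobody library were stained at 4 °C for 1 hour with 10% biotinylated, detergent-solubilized Sf9 membrane reagent. Streptavidin microbeads enriched the stained cells before FACS sorting into low and high (top ~1%) gates on anti-HA and streptavidin fluorescence. Each clone's polyreactivity label reflects its gate of origin.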
Consider “QVQLVESGGGLVQAGGSLRLSCAASGGIFSFKAMGWYIQAPGKERELVAAITTRGGSTYYADSVKGRFTISRDNAKNTVYLQMNSLKPEDTAVYYCAAEGYEEFNWGQGTQVTVSS”, for which the “polyreactivity (PSR sort gate)” value is “low polyreactivity”. The same measure for “QVQLVESGGGLVQAGGSLRLSCAASGGIFSGYAMGWYRQAPGKERELVAAISRRGGSTYYADSVKGRFTISRDNAKNTVYLQMNSLKPEDTAVYYFAKAYPYTCGQVTMYYWGQGTQVTVSS”: “high polyreactivity”; for “QVQLVESGGGLVQAGGSLRLSCAASGGIFSLYAMGWYRQAPGKEREFVAAISFTGASTYYADSVKGRFTISRDNAKNTVYLQMNSLKPEDTAVYYCAAYWDAEGRRYTRLDYWGQGTQVTLSS”: “low polyreactivity”. Consider “QVQLVESGGGLVQAGGSLRLSCAASGGIFSSYVMGWYRQAPGKERELVAAIRWSGSSTYYADSVKGRFTISRDNAKNTVYLQMNSLKPEDTAVYYCAAYRDYGSYGSWGQGTQVTVSS”, for which the “polyreactivity (PSR sort gate)” value was “high polyreactivity”. With “QVQLVESGGGLVQAGGSLRLSCAASGGIFSYNAMGSYRQAPGKERELVATISYSGGSTFYADSVKGRFTISRDNAKNTVYLQMNSLKPEDTAVYYCARPSYTSGYQSYDYWGQGTQVTVSS” the entry was “low polyreactivity”; with “QVQLVESGGGLVQAGGSLRLSCAASGGIFSYNAMGWSRQAPGKEREWVASITGSGGSTYYADSVKGRFTISRGNAKNTVYLQMNSLKPEDTAVYYCAAQGYWTYWPYLLRLYDYWGQGTQVTVSS”, “low polyreactivity”. The same measure for “QVQLVESGGGLVQAGGSLRLSCAASGGIFSYYAMGWYRQAPGKEREFVAAIDWGGGSTYYADSVKGRFTISRDNAKKTVYLQMNSLKPEDTAVYYCAAEIYPIGWDDYDYWGQGTQVTVSS”: “low polyreactivity”.

Regarding “QVQLVESGGGLVQAGGSLRLSCAASGGIFTRNDMGWYRQAPGKERELVAGISWRGGSTYYADSVKGRFTISRDNAKNTVYLQMNSLKPEDTAVYYCAADLDSDFDYWGQGTQVTVSS”, the “polyreactivity (PSR sort gate)” value is “low polyreactivity”. As for “QVQLVESGGGLVQAGGSLRLSCAASGGIFVFYGLGWYRQAPGKERELVAAINGNGDDTYYADSVKGRFTISRDNAKNTVYLQMNSLKPEDTAVYYCAAESRGDGDGYWGQGTQVTVSS”, the “polyreactivity (PSR sort gate)” value was “low polyreactivity”. As to “QVQLVESGGGLVQAGGSLRLSCAASGGIFWFNAMGWYRQAPGKEREFVAAITWRGGSTYYADSVKGRFTISRDNAKNTVYLQMNSLKPEDTAVYYCAATYWWHRSSGWDRVEYWGQGTQVTVSS”, the “polyreactivity (PSR sort gate)” value is listed as “high polyreactivity”. With “QVQLVESGGGLVQAGGSLRLSCAASGGIFWHYTMGWYRQAPGKERELVAAITRRGGSTYYADSVKGRFTISRDNAKNSVYLQMTSLKREDTAVYYCAADFLPQSYNWYDYWGQGTQVTVSS” the entry was “low polyreactivity”; with “QVQLVESGGGLVQAGGSLRLSCAASGGIFWYYAMGWYRQAPGNERELVATISTGGSTKYADSVKGRFTISRDNAKNTVYLQMNSLNPDDTAVYYCNKVFPNLYIYVVRGLIEMDYWGQGTQVTVSS”, “low polyreactivity”. The same measure for “QVQLVESGGGLVQAGGSLRLSCAASGGIFYGYAMGWYRQAPGKERELVASITSDGSTYADSVKGRFTISRDNAKNTVYLQMNSLKPEDTAVYYCNKEILVIVTYDYWGQGTQVTVSS”: “low polyreactivity”.

In the case of “QVQLVESGGGLVQAGGSLRLSCAASGGIFYGYAMGWYRQAPWKERELVAAISSTGGRTYYADSVKGRFTISRDNAKNTVYLQMNSLKPEVTAVYYCAAEDFTRQFEYWGQGTQVTVSS”, the “polyreactivity (PSR sort gate)” value was “low polyreactivity”. Regarding “QVQLVESGGGLVQAGGSLRLSCAASGGIFYRNAMGWYRQAPGKERELVAAISSGGGSTYYADSVKGRFTISRDNAKNTVYLQMNSLKPEDTAVYYCARDSYHLYIQPFGYWGQGTQVTVSS”, the “polyreactivity (PSR sort gate)” value is listed as “low polyreactivity”.

On to “QVQLVESGGGLVQAGGSLRLSCAASGGIFYRYAMGWYRQAPGKEREFVASITSSGDRTYYADSVKGRFTISRDNAKNTVYLQMNSLKPEDTAVYYCAAVYTAAWGGRYHYWGQGTQVTVSS”, for which the “polyreactivity (PSR sort gate)” value is “high polyreactivity”.

In the case of “QVQLVESGGGLVQAGGSLRLSCAASGGIIGWNAMGWYRQAPGKERELVATISWSGGSTYYADSVKGRFTISRDNAKNTVYLQMNSLKPEDTAVYYCAVARSAYWYRPAYDYWGQGTQVTVSS”, the “polyreactivity (PSR sort gate)” value is listed as “high polyreactivity”. The same measure for “QVQLVESGGGLVQAGGSLRLSCAASGGIILGYAMRWYRQARGKERELVAAISRSGVSTYYADSVKGRFTISRDNAKNTVYLQMNSLKPEDTAVYYCASDYRYASDYWGLGTQVTVSS”: “low polyreactivity”; for “QVQLVESGGGLVQAGGSLRLSCAASGGILPKNAMGCYRQAPGKQRELVAAISTRGTSTYYADSVKGRFTISRDNAKNTVYLQMNSLKPEDTGVYYCATSRVYIGYDYWGQGTQETVSS”: “low polyreactivity”. For “QVQLVESGGGLVQAGGSLRLSCAASGGILYHYAMGWYRQAPGIERELVAAIRWSGGSTYYADSVKGRFTISRDNAKNTVYLQMNSLKPEDTAVYYCAADVYYYHVLDFDYWGQGTQVTVSS”, the “polyreactivity (PSR sort gate)” value is listed as “low polyreactivity”.

Turning to “QVQLVESGGGLVQAGGSLRLSCAASGGILYYYAMGWYRQAPGKERELVAGISVRGGRTNYADSVKGRFTISRDNAKNTVYLQMNSLKPEDTAVYYCAAETLYTSGYGSWGQGTQVTVSS”, the “polyreactivity (PSR sort gate)” value is listed as “low polyreactivity”. With “QVQLVESGGGLVQAGGSLRLSCAASGGISAFNSMGWYRQAPGKERELVAAINYRGGTTYYADSVKGRFTISRDNAKNTVYLQMNSLKPEDTAVYYCNKPYYSSTYYYWGQGTQVTVSS” the entry was “low polyreactivity”; with “QVQLVESGGGLVQAGGSLRLSCAASGGIYDSYAMGWYRQAPGKEGEMVASISWSGGSTYYADSVKGRFTISRDNAKNTVYLQMNSLKPEDTAVYYCAADRAYAGRYWKGYHSALYDYWGEGTQVTVSS”, “low polyreactivity”. With “QVQLVESGGGLVQAGGSLRLSCAASGGLFWTYAMGWYRQAPGKERELVATITSGGSTNYADSVKGRFTISRDNAKNTVYLQMNSLKPEETAVYYCNADWWWGYGYWGQGTQVTVSS” the entry was “low polyreactivity”; with “QVQLVESGGGLVQAGGSLRLSCAASGGMLPKNAMGWYRQAPGKVRELVAGISTRGTSTYYADSVKGRFTISRDNAKNTVYLQMNSLKPEDTAVYYCATSRDYIGYDYWGQGTQVTVSS”, “low polyreactivity”.

On to “QVQLVESGGGLVQAGGSLRLSCAASGGNFEWNAMGWYRQAPGKERELVAAISNTGGSTSYADSVKGRFTISRDNAKNTVYLQMNSLKTEDTAVYYCNTVNRYEFGYWGQGSQVTVSS”, for which the “polyreactivity (PSR sort gate)” value is listed as “high polyreactivity”.

For the sequence “QVQLVESGGGLVQAGGSLRLSCAASGGSYVMGWYRQAPGKERELVAAITFSGRTYYADSVKGRFTISRDNAKNTVYLQMNSLKPEDTAGYYCAARERPGFRRPLTGGYDHWGQVTQVTVSS”, the “polyreactivity (PSR sort gate)” value is “high polyreactivity”. Take “QVQLVESGGGLVQAGGSLRLSCAASGGTFAAYAMGWYRQAPGKERELVAAIDSGGTTKYADSVKGRFTISRDNAKNTVYLQMNSLKPEDTAVYYCAKVTTGFGVETYHGKGNDYWGQGTQVTVSS”: the “polyreactivity (PSR sort gate)” value is recorded as “low polyreactivity”. With “QVQLVESGGGLVQAGGSLRLSCAASGGTFATYAMGWYRQAPGKERELVATIRSGGSTYYADSVKGRFTISRDNAKNTVYLQMNSLKPEDTAVYYCNARAYHKGFYRITYYYWGQGTQVTVSS” the entry was “high polyreactivity”; with “QVQLVESGGGLVQAGGSLRLSCAASGGTFDVYTMGWYRQAPGKERELVAAIDNGGSTNYADSVKGRFTISRDNAKHTVYLQMNSLKPEDTAVYYCAADEVYLFWGIAEFIYDYWGQGTQVTVSS”, “low polyreactivity”; with “QVQLVESGGGLVQAGGSLRLSCAASGGTFEVNAMGWYRQAPGKERELVAAIDTSDGSTYYADSVKGRFTISRDNAKNTVYLQMNSLKPEDTAVYYCAAERLFRFWYSAYERYDYWGQGTQVTVSS”, “low polyreactivity”.

Take “QVQLVESGGGLVQAGGSLRLSCAASGGTFFVYMGRYRQAPGKERELVAAITGGGGTYYADSVKGRFTISRDNAKNTVYLQMNSLKPEDTAVYYCATRGATSTVPEGDSWGQGTHVTVSS”: the “polyreactivity (PSR sort gate)” value is listed as “low polyreactivity”. For the sequence “QVQLVESGGGLVQAGGSLRLSCAASGGTFGAYAMGWYRQAPGKERELVAAINVGGGSTYYADSVKGRFTISRDNAKNTVYLQMNSLKPEDTAVYYCAKDLYDGYWRGDYWGQGTQVTVSS”, the “polyreactivity (PSR sort gate)” value is given as “low polyreactivity”. With “QVQLVESGGGLVQAGGSLRLSCAASGGTFGLDAMGWYRQARGKERELVARISWSSGSTYYADSVKGRFTISRDNAKNTVYLQMNSLKPEDTAVYYCATDTYGAHAFFEFDYWGQGTQVTVSS” the entry was “low polyreactivity”. With “QVQLVESGGGLVQAGGSLRLSCAASGGTFGNNDMGWYRQAPGKERELVAAIRSAGTTYYADSVKGRFTISRDNAKNTVYLQMNSLKPEDTAVYYWNADTTGYWSFGFQYYGEDYWGQGTQVTVSS” the entry was “low polyreactivity”; with “QVQLVESGGGLVQAGGSLRLSCAASGGTFGSNAMGWYRQAPGKERELLAAITSRGGSTSYADSVKGRFTISRDYAKNTVYLQMKSLKPEDTAVYYCASVRYYWRPYVVNFDYWGQGTQVTVSS”, “high polyreactivity”; with “QVQLVESGGGLVQAGGSLRLSCAASGGTFGSNTMGWYRQAPGKERELVAAITSGVSTNYADSVKGRFTISRDNAKNTVYLQMISLKPEDTAVYYCAKDLWSEEYETIITSYGFDYWGQGTQVTLSS”, “low polyreactivity”.

For the sequence “QVQLVESGGGLVQAGGSLRLSCAASGGTFGSYAMGWSRPAPGKERELVAAIDYSGADTYYADSVKGRFTISRDNAKNTVYLQMNSLKPEDTAVYYCNAEFESGHDLDWYDYWGQGTQVTVSS”, the “polyreactivity (PSR sort gate)” value was “low polyreactivity”. With “QVQLVESGGGLVQAGGSLRLSCAASGGTFGTYAMGWYRQAPGKERELVAAITRSGGSTYADSVKGRFTISRDNAKNTVYLQMNSMKPEDTAVYYCNTRTTWRRYVVNGYDYWGQGTQVTVSS” the entry was “low polyreactivity”; with “QVQLVESGGGLVQAGGSLRLSCAASGGTFGVNAMGWYRQAPGKDRELVAAISSSGGRTYYADSVKGRFTISRDNAKNTVYLQMNSLKPEDTAVYYCAARNYFWGQGTQVTVSS”, “low polyreactivity”; with “QVQLVESGGGLVQAGGSLRLSCAASGGTFGYNTLGWYRQAPGKERELVAAITGSGGRTYYADSVKGRFTISRDNAKNTVYLQMNSLKPEDTAVYYCNALTYPDYGYWGQGTQVTVSS”, “low polyreactivity”.
